Data as given in patent US20160376596A1 (BAVARIAN NORDIC A S, published 2016).

Biological target: T1, B19 protein of chorioallantois vaccinia virus Ankara (CVA) (Vaccinia virus, strain Ankara (CVA), UniProt P23998 20-351)
T1 construct: also called orthopoxviral B19 protein
Assay: statement in Example 3; no assay described for IFN-β

B1: murine IFN-beta (ligand)
chain: INYKQLQLQERTNIRKCQELLEQLNGKINLTYRADFKIPMEMTEKMQKSYTAFAIQEMLQNVFLVFRNNFSSTGWNETIVVRLLDELHQQTVFLKTVLEEKQEERLTWEMSSTALHLKSYYWRVQRYLKLMKYNSYAWMVVRAEIFRNFLIIRRLTRNFQN
notes: also called IFN-β; murine IFN-β
B1: no binding.
